Reference: patent publication US20230025600A1, “TREATMENT OF CANCERS WITH ANTIBODY DRUG CONJUGATES (ADC) THAT BIND TO 191P4D12 PROTEINS” (AGENSYS, INC., priority 2019, published 2023)

Tests used:
[1] = Cardiac electrophysiology (QTc); assay type: in vivo, human; conditions: at the recommended dose; large = >20 msec
191P4D12 = target: T1, 191P4D12 (Homo sapiens, UniProt Q96NY8); experiment: Comparability: analytical and biological characterization studies; conditions: binding affinity to 191P4D12, in vitro cytotoxicity, in vivo antitumor activity
T1 sequence (Q96NY8 32-510): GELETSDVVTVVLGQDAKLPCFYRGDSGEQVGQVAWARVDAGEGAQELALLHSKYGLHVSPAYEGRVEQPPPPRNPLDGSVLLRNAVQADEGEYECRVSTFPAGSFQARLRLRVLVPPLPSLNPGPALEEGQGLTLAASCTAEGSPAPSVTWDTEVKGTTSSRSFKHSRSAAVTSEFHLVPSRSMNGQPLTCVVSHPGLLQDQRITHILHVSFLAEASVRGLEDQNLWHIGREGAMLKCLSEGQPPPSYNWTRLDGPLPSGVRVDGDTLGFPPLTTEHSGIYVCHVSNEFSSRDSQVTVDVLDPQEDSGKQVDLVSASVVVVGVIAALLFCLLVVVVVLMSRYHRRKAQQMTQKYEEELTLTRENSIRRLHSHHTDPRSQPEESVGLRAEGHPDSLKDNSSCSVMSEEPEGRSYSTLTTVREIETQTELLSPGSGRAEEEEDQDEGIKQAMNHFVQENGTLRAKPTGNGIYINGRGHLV
Text: As described above and in U.S. Pat. No. 8,637,642, AGS-22M6E is an ADC derived from a murine hybridoma cell line. Enfortumab vedotin is the a Chinese hamster ovary (CHO) cell line-derived equivalent of AGS-22M6E ADC and is an exemplary product used for human treatment. Enfortumab vedotin has the same amino acid sequence, linker and cytotoxic drug as AGS-22M6E. The comparability between enfortumab vedotin and AGS-22M6E was confirmed through extensive analytical and biological characterization studies, such as binding affinity to 191P4D12, in vitro cytotoxicity, and in vivo antitumor activity.

[2] = EV-201 laboratory abnormalities; assay type: in vivo, human
Experimental: The data described in this section reflect exposure to PADCEV from EV-201, a single arm study in patients (n=125) with locally advanced or metastatic urothelial cancer who had received prior treatment with a PD-1 or PD-L1 inhibitor and platinum-based chemotherapy. Patients received PADCEV 1.25 mg/kg on Days 1, 8 and 15 of a 28-day cycle until disease progression or unacceptable toxicity. The median duration of exposure to PADCEV was 4.6 months (range: 0.5-15.6). […]

[3] = Pooled safety in 310 patients (EV-201, EV-101, EV-102); assay type: in vivo, human
Experimental: Because clinical trials are conducted under widely varying conditions, adverse reaction rates observed in the clinical trials of a drug cannot be directly compared to rates in the clinical trials of another drug and may not reflect the rates observed in practice. The data in the WARNINGS AND PRECAUTIONS section reflect exposure to PADCEV as a single agent at 1.25 mg/kg in 310 patients in EV-201, EV-101 (NCT02091999), and EV-102 ([…]). Among 310 patients receiving PADCEV, 30% were exposed for ≥6 months and 8% were exposed for ≥12 months.

EV-201 adverse reactions = assay type: in vivo, human
Experimental: The data described in this section reflect exposure to PADCEV from EV-201, a single arm study in patients (n=125) with locally advanced or metastatic urothelial cancer who had received prior treatment with a PD-1 or PD-L1 inhibitor and platinum-based chemotherapy. Patients received PADCEV 1.25 mg/kg on Days 1, 8 and 15 of a 28-day cycle until disease progression or unacceptable toxicity. The median duration of exposure to PADCEV was 4.6 months (range: 0.5-15.6).

[4] = EV-201, denominator 121 or 122 patients
[5] = 310 patients in clinical trials
[6] = 310 patients in clinical trials, 1.25 mg/kg
[7] = EV-201, patients who experienced rash

In the case of enfortumab vedotin-ejfv [PADCEV], the QTc prolongation [1] is reported as “no large QTc prolongation”, the “comparability between enfortumab vedotin and AGS-22M6E” value (191P4D12) is reported as “confirmed” and the “Creatinine increased, Grade 3-4” value [2, 4] is reported as 2%. For the same substance, the “Creatinine increased, Grades 2-4” value [2, 4] was 20%, the “Glucose increased, Grade 3-4” value [2, 4] was 8% and the “Hemoglobin decreased, Grade 3-4” value [2, 4] was 10%. For the same substance, the “Hemoglobin decreased, Grades 2-4” value [2, 4] was 34%, the “Leukocytes decreased, Grade 3-4” value [2, 4] was 4% and the “Leukocytes decreased, Grades 2-4” value [2, 4] was 14%. For the same substance, the “Lipase increased, Grade 3-4” value [2, 4] was 9%, the “Lipase increased, Grades 2-4” value [2, 4] was 14% and the “Lymphocytes decreased, Grade 3-4” value [2, 4] was 10%. For the same substance, the “Lymphocytes decreased, Grades 2-4” value [2, 4] was 32%, the “Neutrophils decreased, Grade 3-4” value [2, 4] was 5% and the “Neutrophils decreased, Grades 2-4” value [2, 4] was 14%. For the same substance, the “Phosphate decreased, Grade 3-4” value [2, 4] was 10%, the “Phosphate decreased, Grades 2-4” value [2, 4] was 34% and the “Sodium decreased, Grade 3-4” value [2, 4] was 8%. For the same substance, the “Sodium decreased, Grades 2-4” value [2, 4] was 8%, the “Urate increased, Grade 3-4” value [2, 4] was 7% and the “Urate increased, Grades 2-4” value [2, 4] was 7%. The “patients with non-fasting glucose >160-250 mg/dL” value ([2]; EV-201, fasting glucose not measured, 23 patients) was “^†CTCAE Grade 2 is defined as fasting glucose >160-250 mg/dL. Fasting glucose levels were not measured in EV-201. However, 23 (19%) patients had non-fasting glucose >160-250 mg/dL”, the blurred vision ([3]; 310 patients) was 14% and the dry eye symptoms ([3]; 310 patients) was 19%. The “extravasation reactions with secondary cellulitis, bullae, or exfoliation” value ([3]; 310 patients) was “One”, the “median time to onset to symptomatic vision disorder” value ([3]; 310 patients) was 3.1 months and the ocular disorders ([3]; 310 patients) was 46%. The “skin and soft tissue reactions secondary to extravasation” value ([3]; 310 patients) was 1.3%, the “Grade 3-4 skin reactions” value [3, 5] was 10% and the maculopapular rash [3, 5] was 26%. For the same substance, the pruritus [3, 5] was 30%, the skin reactions [3, 5] was 54% and the “peripheral neuropathy Grade 3 reactions” value [3, 6] was 2%. For the same substance, the “peripheral neuropathy, predominantly sensory” value [3, 6] was 49%, the “differences in safety or effectiveness between patients 65 years or older and younger patients” value ([3]; 310 patients, 187 were 65 years or older, 80 were 75 years or older) was “No overall differences” and the “erythema, swelling, increased temperature and pain worsened until, after extravasation” value ([3]; infusion site extravasation) was 2 to 7 days. For the same substance, the “extravasation reactions resolved within, of peak” value ([3]; infusion site extravasation) was 1-4 weeks, the “incidence of Grade 3-4 hyperglycemia with higher body mass index and higher baseline A1C” value ([3]; patients treated with PADCEV) was “increased consistently” and the herpes zoster (EV-201 adverse reactions; EV-201) was 3%. For the same substance, the infusion site extravasation (EV-201 adverse reactions; EV-201) was 2%, the “median time to onset of Grade >=2 peripheral neuropathy” value (EV-201 adverse reactions; EV-201) was 3.8 months and the “median time to onset of severe skin reactions” value (EV-201 adverse reactions; EV-201) was 0.8 months. For the same substance, the “peripheral neuropathy: complete resolution at last evaluation” value (EV-201 adverse reactions; EV-201) was 19%, the “peripheral neuropathy: partial improvement at last evaluation” value (EV-201 adverse reactions; EV-201) was 26% and the “Alopecia, Grade >= 3” value (EV-201 adverse reactions; EV-201, n = 125) was 0%. For the same substance, the “Any adverse reaction, All Grades” value (EV-201 adverse reactions; EV-201, n = 125) was 100%, the “Any adverse reaction, Grade >= 3” value (EV-201 adverse reactions; EV-201, n = 125) was 73% and the “Decreased appetite, Grade >= 3” value (EV-201 adverse reactions; EV-201, n = 125) was 2%. The “Dry skin, Grade >= 3” value (EV-201 adverse reactions; EV-201, n = 125) was 0%, the “Dysgeusia, Grade >= 3” value (EV-201 adverse reactions; EV-201, n = 125) was 0% and the “Nausea, Grade >= 3” value (EV-201 adverse reactions; EV-201, n = 125) was 3%. The “Peripheral neuropathy (grouped term), Grade >= 3” value (EV-201 adverse reactions; EV-201, n = 125) was 4%, the “Pruritus, All Grades” value (EV-201 adverse reactions; EV-201, n = 125) was 26% and the “Pruritus, Grade >= 3” value (EV-201 adverse reactions; EV-201, n = 125) was 2%. For the same substance, the “Vomiting, All Grades” value (EV-201 adverse reactions; EV-201, n = 125) was 18%, the “Vomiting, Grade >= 3” value (EV-201 adverse reactions; EV-201, n = 125) was 2% and the “adverse reactions leading to discontinuation” value (EV-201 adverse reactions; EV-201, n = 125) was 16%. For the same substance, the “adverse reactions leading to dose interruption” value (EV-201 adverse reactions; EV-201, n = 125) was 64%, the “adverse reactions leading to dose reduction” value (EV-201 adverse reactions; EV-201, n = 125) was 34% and the “dose interruption due to fatigue” value (EV-201 adverse reactions; EV-201, n = 125) was 6%. The “dose interruption due to peripheral neuropathy” value (EV-201 adverse reactions; EV-201, n = 125) was 18%, the “dose interruption due to rash” value (EV-201 adverse reactions; EV-201, n = 125) was 9% and the “dose reduction due to fatigue” value (EV-201 adverse reactions; EV-201, n = 125) was 4%. For the same substance, the “dose reduction due to peripheral neuropathy” value (EV-201 adverse reactions; EV-201, n = 125) was 12%, the “dose reduction due to rash” value (EV-201 adverse reactions; EV-201, n = 125) was 6% and the “fatal adverse reaction: acute respiratory failure” value (EV-201 adverse reactions; EV-201, n = 125) was 0.8%. The “fatal adverse reaction: aspiration pneumonia” value (EV-201 adverse reactions; EV-201, n = 125) was 0.8%, the “fatal adverse reaction: cardiac disorder” value (EV-201 adverse reactions; EV-201, n = 125) was 0.8% and the “fatal adverse reaction: sepsis” value (EV-201 adverse reactions; EV-201, n = 125) was 0.8%. For the same substance, the fatal adverse reactions (EV-201 adverse reactions; EV-201, n = 125) was 3.2%, the “peripheral neuropathy leading to treatment discontinuation” value (EV-201 adverse reactions; EV-201, n = 125) was 6% and the “serious adverse reaction: diarrhea” value (EV-201 adverse reactions; EV-201, n = 125) was 4%. For the same substance, the “serious adverse reaction: fatigue” value (EV-201 adverse reactions; EV-201, n = 125) was 2%, the “serious adverse reaction: nausea” value (EV-201 adverse reactions; EV-201, n = 125) was 2% and the “serious adverse reaction: rash” value (EV-201 adverse reactions; EV-201, n = 125) was 3%. The “serious adverse reaction: vomiting” value (EV-201 adverse reactions; EV-201, n = 125) was 2%, the serious adverse reactions (EV-201 adverse reactions; EV-201, n = 125, 1.25 mg/kg Days 1, 8, 15 of 28-day cycle) was 46% and the “rash: complete resolution” value (EV-201 adverse reactions; [7]) was 65%. The “rash: partial improvement” value (EV-201 adverse reactions; [7]) was 22% and the “patients who developed Grade 3-4 hyperglycemia” value (EV-201 adverse reactions; EV-201, baseline hemoglobin A1C >=8% excluded) was 8%.
